# Assay results: the RNAGym collection of RNA variant scans (doi:10.1073/pnas.2313332121)
# This sample holds only a part of the variants without activity.
# B1: TPR 5TU (parent)
# chain: GGAUCUUCUCGAUCUAACAAAAAAGACAAAUCUGCCACAAAGCUUGAGAGCAUCUUCGGAUGCAGAGGCGGCAGCCUUCGGUGGCGCGAUAGCGCCAACGUUCUCAACUAUGACACGCAAAACGCGUGCUCCGUUGAAUGGAGUUUAUCAUG
# Variants of: B1
# Test: polymerase ribozyme fitness, log enrichment relative to wild type (log ratio); higher = more active; in vitro selection for triplet polymerase activity
# Outline: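 To select mutant libraries of each subunit of a heterodimeric triplet polymerase ribozyme, built by PCR and transcribed, each was annealed with a biotinylated primer, partner subunit and triplets, then incubated frozen at −7 °C. Extended constructs were gel-excised, captured on streptavidin beads and amplified by RT-PCR, in one round carried out in triplicate. Illumina sequencing of input and output libraries kept genotypes with ≥10 input reads and ≥1 read per output. Fitness is the base-2 logarithm of genotype enrichment relative to wild-type enrichment, from inverse-variance-weighted replicate averages.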
row,Variant,polymerase ribozyme fitness (log ratio)
1,GGAUCUUCUCGAUCUAACAAAAAAGACAAAUCUGCCACAAAGCCUGAGAGUAUCUUCGGAUGCAGAGGCGGCAGCCUUCGGUGGCGCGAUAUCGCGAACGUGCUCAACUAUGACACGCAAAACGCGUCCUCCGUUGAAUGGAGUUUAUCAUG [U44C C51U G92U C96G U102G G128C],≤ -4.2
2,GGAUCUUCUCGAUCUAACAAAAAAGACAAAUCUGCCACAAAGCGUGAGAGCAUCUUCGGAUGCAGAGGCGGCAGCCUUCGGUGGCGCGAUACCGCCAACGUUCUCAACUAUGACACGCAAAACGCGUGCUCCGUUGAAUGGAGUUUAUCAUG [U44G G92C],≤ -4.2
3,GGAUCUUCUCGAUCUAACAAAAAAGACAAAUCUGCCACAAAGCAUGAGAGCAUCUUCGGAUGCAGAGGCGGCAGCCUUCGGUGGCCCGAUAGCGCCAACGUUCUCAACUAUGACACGCACAACGCGUGCUCCGUUGAAUGGAGUUCAUCAUG [U44A G86C A120C U146C],≤ -4.2
4,GGAUCUUCUCGAUCUAACAAAAAAGACAAAUCUGCCACAAAGCAUGAGAGCAUCUUCGGAUGCAGAGGCGGCAGCCUUCGGUGGUGAGAUAGCGCCAACGUUCUCAACUAUGACACUCAAAACGCGUGCUCCGUUGAAUGGAGUUUAUUAUG [U44A C85U C87A G117U C149U],≤ -4.2
5,GGAUCUUCUCGAUCUAACAAAAAAGACAAAUCUGCCACAAAGCAUGAGAACAUCUUCGGAUGCAGAGGCGGCAGCCUUCGGUGGCGCGAUAGGGCCAACGUUCUCAACUAUGACACGCAAAACGCGUGCUCCGUUGAAUGGAGUUUAUCAUG [U44A G50A C93G],≤ -4.2
6,GGAUCUUCUCGAUCUAACAAAAAAGACAAAUCUGCCACAAAGCCUGAGAGCAUCUUCGGAUGCAGAGGCGGCAGCCUUCGGUGGCGCGAUAGCGCCAACGUUCUCAACUAUGACACGCAAAACGCGUGCUCCGUUGAAUGGAGUUUAUCAUG [U44C],-1.11
7,GGAUCUUCUCGAUCUAACAAAAAAGACAAAUCUGCCACAAAGCGUGAGAGCAUCUUCGGAUGCAGAGGCGGCAGCCUUCGGUGGCGCGAUAGCGCCAACGUUCUCAACUAUGACACGCAAAACGCGUGCUCCGUUGAAUGGAGUUUAUCAUG [U44G],-3.7
8,GGAUCUUCUCGAUCUAACAAAAAAGACAAAUCUGCCACAAAGCAUGAGAGCAUCUACGGAUGCCGAGGCGGCAGCCUUCGGUGGCGCGAUUGCGCCAACGUUCUUAAGUCUGACACGCAAAACGCGUGCUCCGUGGAAUGGAGUUUAUCAUG [U44A U56A A64C A91U C105U C108G A110C U135G],≤ -4.2
9,GGAUCUUCUCGAUCUAACAAAAAAGACAAAUCUGCCACAAAGCGUGAGAGCAUCUACGGAUGCAGAGGCGGCAGCCUUCGGUGGCGCGAUAGCGCCAACGUUCUCAACUAUGACACGCAAAACGCGUGCUCCGUUGAAUGGAGUUUAUCAUG [U44G U56A],-3.19
10,GGAUCUUCUCGAUCUAACAAAAAAGACAAAUCUGCCACAAAGCGGGAGAGCAUCUUCGGAUGCAGAGGCGGCAGCCUUCGGUGGCGCGAUAGCGCCCACGUUCUCAACUAUGACACGCAAAACGCGUGCUCCGUUGAAUGGAGUUUAUCAUG [U44G U45G A97C],≤ -4.2
11,GGAUCUUCUCGAUCUAACAAAAAAGACAAAUCUGCCACAAAGCAUGAGAGCAUCUUCGGAUGCAGAGGCGGCAGCCUUCGGGGGCGCGAUAGCGCCAACGUUCUCAACUAUGACACGCAAAACGCGUGCUCCGUUGAAUGGAGUUUAUCAUG [U44A U82G],≤ -4.2
12,GGAUCUUCUCGAUCUAACAAAAAAGACAAAUCUGCCACAAAGCAUGAGAGCAUCUUCGGAUGCACAGGCGGCAGCCUUCGGUGGCGCGUUAGCGCCAACGUUCUCAACUAUGACACGCAAAACGCGUGCUCCGUUGAAUGGAGUUUAUCAUG [U44A G65C A89U],≤ -4.2
13,GGAUCUUCUCGAUCUAACAAAAAAGACAAAUCUGCCACAAAGCGUGAGAGCAUCUUCGGAUGCAAAGACGGCAGCCUUCGGUGGCGCGAUAGCGCCAACGUUCUCAACUAUGACACGCAAAACGCGUGCUCCGUUGAAUGGAGUUUAUCAUG [U44G G65A G68A],≤ -4.2
14,GGAUCUUCUCGAUCUAACAAAAAAGACAAAUCUGCCACAAAGCCUGAGAGCAUCUUCGGAUGCAGAGGCGGCAGCCUUCGGUGGCGCGAUAGCGCCAACGUUCUCAACUAUGACACGCAAAACGCGUGCUCCGUUGAAUGGAGUUCAUCAUG [U44C U146C],-3.77
15,GGAUCUUCUCGAUCUAACAAAAAAGACAAAUCUGCCACAAAGCGUGAAAGCAUCUUCGGAUGCAGAGGCGGCAGCCUUCGGUCGCGCGAUAGCGCCAACGUUCUCAACUAUGACACGCAAAACGCGUGCUCCGUUGAAUGGAGUUUAUCAUG [U44G G48A G83C],≤ -4.2
16,GGAUCUUCUCGAUCUAACAAAAAAGACAAAUCUGCCACAAAGCAUGAGAGCAUCUUCGGAUGCAGAGGCCGCAGCCUUCGGUGGCGCGAUAGCGCCAACGUUCUCAACUAUGACACACAAAACGCGUGCUCCGUUUAAUGGAGUUUAUCAUG [U44A G70C G117A G136U],≤ -4.2
17,GGAUCUUCUCGAUCUAACAAAAAAGACAAAUCUGCCACAAAGCAAGCGAGCAUCUUCGGAUGCAGAGGCGGCAGCCUUCGGUGGCACGAUAGCGCCAACGUUCUCAACUAUGACACGCAAAACGCGUGCGCCGUUGAAUGGAGUUUAUCAUG [U44A U45A A47C G86A U130G],≤ -4.2
18,GGAUCUUCUCGAUCUAACAAAAAAGACAAAUCUGCCACAAAGCAUGAGAACAUCUUCGGAUGCACAGGCGGCAGCGUUCGGUGGCGCGAGAGCGCCAACGUUCUCAACUAUGACACGCAAAACGCGUGCUCCGUUGAAUGGAGUUUAUCAUG [U44A G50A G65C C76G U90G],≤ -4.2
19,GGAUCUUCUCGAUCUAACAAAAAAGACAAAUCUGCCACAAAGCAUGAGAGCAUCUUCGGAUGCAGAGGCGGCAGCCUUCGGUGGAGCGAUAGCGCGAACGUUCUCAACUAUGACACGCAAAACGCGUGCUCCGUUGAAUGGAGUUUAUCAUG [U44A C85A C96G],≤ -4.2
